Measured values reported in the supplement of paper PMC7877785.
± gives the uncertainty stated by the source.

Test: self-splicing fitness, log relative to wild type (ln ratio); higher = more splicing; Tetrahymena group I intron in knt gene, E. coli kanamycin selection, DiMSum; sequences stand for … in CUCUCU…GGAGGGAAAAGUUAUCAGGCAUGCACCUGGUAGCUAGUCUUUAAACCAAUAGAUUGCAUCGGUUUAAAAGGCAAGACCGUCAAAUUGCGGGAAAGGGGUCAACAGCCGUUCAGUACCAAGUCUCAGGGGAAACUUUGAGAUGGCCUUGCAAAGGGUAUGGUAAUAAGCUGACGGACAUGGUCCUAACCACGCAGCCAAGUCCUAAGUCAACAGAUCUUCUGUUGAUAUGGAUGCAGUUCACAGACUAAAUGUCGGUCGGGGAAGAUGUAUUCUUCUCAUAAGAUAUAGUCGGACCUCUCCUUAAUGGGAGCUAGCGGAUGAAGUGAUGCAACACUGGAGCCGCUGGGAACUAAUUUGUAUGCGAAAGUAUAUUGAUUAGUUUUGGAGUACUCGUGGUCG
Procedure, shortened: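 Six replicate transformations of E. coli BL21(DE3) with a pET-22b(+) library were grown overnight at 37°C or 30°C. The library randomised all eight P1ex-region intron nucleotides, the intron lying in the knt kanamycin-resistance gene, and plates were LB agar with or without 25 μg/mL kanamycin plus 100 μg/mL carbenicillin, 50 μM IPTG and 0.2% rhamnose. Pooled colonies were amplicon-sequenced on an Illumina HiSeq 2500, and fitness is the DiMSum error-weighted combination of wild-type-normalised replicate fold changes, kanamycin versus none.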

Sequence | self-splicing fitness (ln) (30 °C) | self-splicing fitness (ln) (37 °C)
AAAGAGCAAUAUUACGUUAG | -3.49 ± 0.15 | -3.11 ± 0.25
GAAAAGCAAUAUUACGAAUU | -1.37 ± 0.11 | -0.667 ± 0.12
CGCUAGCAAUAUUACGCACC | -1.98 ± 0.18 | -1 ± 0.23
CGACAGCAAUAUUACGAAAA | -3.75 ± 0.26 | -1.93 ± 0.2
UAAUAGCAAUAUUACGCUUG | -0.7 ± 0.082 | -0.621 ± 0.096
ACGAAGCAAUAUUACGGUAU | -2.57 ± 0.093 | -1.27 ± 0.091
GGCUAGCAAUAUUACGAAGU | -2.13 ± 0.26 | -1.56 ± 0.44
ACUAAGCAAUAUUACGGGUC | -3.49 ± 0.34 | -0.75 ± 0.23
GAACAGCAAUAUUACGCCUC | -1.81 ± 0.17 | -1.89 ± 0.26
CAACAGCAAUAUUACGGGGG | -2.07 ± 0.13 | -1.08 ± 0.1
GUUUAGCAAUAUUACGGUGG | – | -2.33 ± 0.31
UAGUAGCAAUAUUACGAGUA | -1.44 ± 0.11 | -0.61 ± 0.084
GUGGAGCAAUAUUACGAUCC | -2.49 ± 0.2 | -1.13 ± 0.28
CCAUAGCAAUAUUACGAGAC | -3.58 ± 0.3 | -0.492 ± 0.17
CUGAAGCAAUAUUACGGUCG | 0.651 ± 0.072 | -0.32 ± 0.082
UCCAAGCAAUAUUACGCAAC | -4.2 ± 0.37 | -3.04 ± 0.31
GGAGAGCAAUAUUACGUCCG | -1.5 ± 0.1 | -0.937 ± 0.13
CCAUAGCAAUAUUACGAUCG | -0.244 ± 0.053 | 0.361 ± 0.081
CCAAAGCAAUAUUACGUGCU | -4.12 ± 0.18 | -2.88 ± 0.18
UGUGAGCAAUAUUACGCGCG | -1.13 ± 0.43 | –
CUCCAGCAAUAUUACGAGGA | -2.35 ± 0.11 | -2.99 ± 0.18

Sequence | self-splicing fitness (ln) (30 °C) | self-splicing fitness (ln) (37 °C)
GGAGAGCAAUAUUACGAUCU | – | -2.47 ± 0.29
AGCUAGCAAUAUUACGCAAU | -1.79 ± 0.19 | -1.77 ± 0.18
AGGUAGCAAUAUUACGUGUC | -3.313 ± 0.024 | -2.07 ± 0.037
UCGGAGCAAUAUUACGGCCA | -3.25 ± 0.44 | -1.63 ± 0.35
UGAAAGCAAUAUUACGGAAU | -3.12 ± 0.18 | -0.0346 ± 0.15
CCGAAGCAAUAUUACGCCUA | -2.94 ± 0.22 | -2.62 ± 0.28
CUGAAGCAAUAUUACGGUCC | -3.78 ± 0.34 | -2.38 ± 0.46
GGGCAGCAAUAUUACGAUCC | -1.89 ± 0.42 | -0.374 ± 0.37
GACUAGCAAUAUUACGAAUC | -2.28 ± 0.32 | -1.83 ± 0.28
AUAUAGCAAUAUUACGCUCU | -0.66 ± 0.18 | -0.594 ± 0.18
UUGAAGCAAUAUUACGUGAA | -1.92 ± 0.26 | -0.781 ± 0.22
UGAUAGCAAUAUUACGCCGG | -1.5 ± 0.22 | 0.564 ± 0.23
AUGAAGCAAUAUUACGUUAC | -1.96 ± 0.13 | -2.38 ± 0.24
CUAGAGCAAUAUUACGCUAC | -2.83 ± 0.27 | –
GUAGAGCAAUAUUACGCGCU | -2.69 ± 0.32 | -2.85 ± 0.32
CUCCAGCAAUAUUACGACCU | -3.4 ± 0.32 | –
CACAAGCAAUAUUACGAUCG | -0.581 ± 0.069 | 0.875 ± 0.091
UUCGAGCAAUAUUACGUUCA | -1.99 ± 0.13 | -1.15 ± 0.13
UAUGAGCAAUAUUACGUCGA | -3.12 ± 0.38 | -2.47 ± 0.36
GAGAAGCAAUAUUACGAGCU | -0.838 ± 0.12 | -0.347 ± 0.11
AUAAAGCAAUAUUACGUGCC | -0.00478 ± 0.083 | 0.162 ± 0.12

Sequence | self-splicing fitness (ln) (30 °C) | self-splicing fitness (ln) (37 °C)
CCCGAGCAAUAUUACGCCUG | -4.16 ± 0.39 | –
UCUCAGCAAUAUUACGACAC | -4.22 ± 0.26 | -3.33 ± 0.33
AAUUAGCAAUAUUACGCGCG | -1.62 ± 0.17 | -0.951 ± 0.18
AUGGAGCAAUAUUACGGAAU | -2.66 ± 0.32 | -2.02 ± 0.47
CGUUAGCAAUAUUACGCCGG | -0.8 ± 0.11 | -0.767 ± 0.11
CCGAAGCAAUAUUACGCUAA | -3.2 ± 0.34 | -2.7 ± 0.43
ACUCAGCAAUAUUACGGUAC | -2.63 ± 0.13 | -3.01 ± 0.21
ACAUAGCAAUAUUACGACAU | -0.718 ± 0.011 | -0.22 ± 0.032
CUUUAGCAAUAUUACGGGUG | -0.377 ± 0.072 | 0.108 ± 0.091
CGAAAGCAAUAUUACGCUGG | -1.66 ± 0.11 | -0.903 ± 0.14
UUGGAGCAAUAUUACGUAGA | -3.22 ± 0.27 | -1.77 ± 0.18
GAUUAGCAAUAUUACGCCGG | -2.88 ± 0.45 | -1.96 ± 0.41
ACGUAGCAAUAUUACGUAGU | -3.78 ± 0.23 | -1.26 ± 0.16
CGCUAGCAAUAUUACGACGA | -1.46 ± 0.15 | 0.422 ± 0.16
AUAUAGCAAUAUUACGAUUA | -0.958 ± 0.23 | -0.617 ± 0.2
ACUGAGCAAUAUUACGCUCG | -2.59 ± 0.24 | -1.59 ± 0.23
AUGUAGCAAUAUUACGGUCC | -1.32 ± 0.1 | 0.341 ± 0.12
CCGCAGCAAUAUUACGUUAU | -3.43 ± 0.17 | -2.77 ± 0.19
GAUUAGCAAUAUUACGUCAU | -2.76 ± 0.24 | -1.79 ± 0.36
UGCGAGCAAUAUUACGCUAC | – | -0.55 ± 0.46
